Here are results for one substance from PMC5705219.

The target of the test is PRDM9 chimera: human exons 1-9 joined to the final exon (ZF array, 18 zinc fingers) of the chimpanzee reference PRDM9 allele w11a, C-terminally tagged with HA or V5 (human | chimpanzee). The experiment in a line: co-IP; direct competition: HEK293T transfected with three constructs, Human and Chimp prey with the same epitope tag and Human or Chimp bait with the complementary tag; IP against the bait tag, western against the prey tag; both directions of HA/V5 tagging.

“PRDM9 chimera: human exons 1-9 joined to the final exon (ZF array, 18 zinc fingers) of the chimpanzee reference PRDM9 allele w11a, C-terminally tagged with HA or V5” came in with a fold pull-down efficiency against Human PRDM9 prey on the same Chimp bait greater than 2 fold.
